The data set addresses MMLVRT-WT (Moloney murine leukemia virus, UniProt P03355 660-1330). Briefly: DSF thermal shift.

B1: T/P (RNA template/DNA primer) (DNA:RNA)
DNA: TGGAATCAGGTGTCGCACTCTG
RNA: AACAGAGUGCGACACCUGAUUCCAU
In the case of B1, the binding result was “binds”.

(Values after publication doi:10.1101/2025.03.15.643416.)
